Data from PMC2120718.

Assay: flow cytometry of surface TCR, anti-CD3 epsilon UCHT1
Details: glycan lost; control: JGN transfected with wild-type CD3 gamma

CD3 gamma: N70Q
expression_or_secretion: no change

CD3 gamma: N30Q
expression_or_secretion: no change
